Non-standard residues stand in square brackets, D forms with d. No end group written: not given here. Aib = CC(C)(N)C(=O)O

For the assay, the target named is glucagon-like peptide 1 receptor (GLP-1R). As to the kind of experiment: cell-based or functional assay.

Take H[Aib]EGTFTSDLSKQLEEEAVRLAIEFLKN [GA targeting peptide of SEQ ID NO: 9]: the “EC50 (µM), glucose-stimulated insulin secretion (GSIS) assay on pancreatic β cell cultures” value was less than 10 µM.

As for H[Aib]EGTFTSDLSKQLEEEAVRLAIEFLKNGGPSSGAPPPS [GA targeting peptide of SEQ ID NO: 10], the “EC50 (µM), glucose-stimulated insulin secretion (GSIS) assay on pancreatic β cell cultures” value is less than 10 µM.

The values are drawn from patent US20090098130A1 (published 2009).
